From the supplement of paper PMC10724198
Where “and” joins values, the source holds several entries; their conditions need not be identical. Equal entries are not always repeated. ± gives the standard deviation of the averaged measurements.

Legend:
Saccharomyces cerevisiae [1] = experiment: protein stability index of tFT-peptide fusion in wild type (PSI (0-1 scale)); higher = more stable (slower turnover); settings: genetic background: wild type
Method: (§1)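 MPS profiling in S. cerevisiae of two library types built from selected 12-aa C-degron peptides (IN1, IN2, LN1, LN3, VN2, R1-R5, W1-W3, Atg1 and Rpa12 C-termini): saturation mutagenesis libraries and C-terminal +1 capping libraries (13 aa). Each peptide is fused to the C-terminus of a sfGFP-mCherry timer, after a GGGS linker. Cells are FACS-sorted into 8 mCherry/sfGFP bins and sequenced. PSI runs from 0 (unstable) to 1 (stable), measured once in wild type and in the das1Δ or doa10Δ background.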

Saccharomyces cerevisiae [2] = experiment: protein stability index of tFT-peptide fusion in deletion strain of DOA10 (PSI (0-1 scale)); higher = more stable (slower turnover)
Method: as §1

Saccharomyces cerevisiae [3] = experiment: protein stability index of tFT-peptide fusion (C-terminal peptide) (PSI (0-1 scale)); higher = more stable (slower turnover)
Method: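 MPS profiling in S. cerevisiae of the tFT-X12 degron library: putative degron peptides plus stable controls, 12 aa, fused to the C-terminus of a sfGFP-mCherry timer. Cells are FACS-sorted into 8 mCherry/sfGFP bins and deep-sequenced. PSI runs from 0 (unstable) to 1 (stable). Backgrounds are wild type, das1Δ and doa10Δ at 30 °C, and wild type, das1Δ, cdc34-1 and cdc53-1 at 37 °C; 2-3 technical replicates each.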

Saccharomyces cerevisiae [4] = experiment: as above; settings: genetic background: wild type; temperature: 30 C
Saccharomyces cerevisiae [5] = experiment: protein stability index of tFT-peptide fusion in deletion strain of DAS1 (PSI (0-1 scale)); higher = more stable (slower turnover)
Method: as §1

[6] = genetic background: cdc34-1, temperature: 37 C
[7] = genetic background: cdc53-1, temperature: 37 C
[8] = genetic background: das1 deletion, temperature: 30 C
[9] = genetic background: das1 deletion, temperature: 37 C
[10] = genetic background: doa10 deletion, temperature: 30 C
[11] = genetic background: wild type, temperature: 30 C
[12] = genetic background: wild type, temperature: 37 C
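Throughout, for protein stability index of tFT-peptide fusion (C-terminal peptide): PSI is a weighted mean of sequencing reads over stability bins, variants kept only with over 10 reads, mCherry proximal and sfGFP distal, peptide attached via GGGS linker.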
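Throughout, for protein stability index of tFT-peptide fusion in deletion strain of DAS1: PSI is a weighted mean of each variant's read distribution over the sorted stability bins, computed only for variants having over 10 reads in total.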
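Throughout, for protein stability index of tFT-peptide fusion in deletion strain of DOA10: PSI per variant is the weighted mean of its sequencing read distribution over the sorted stability bins, counting only variants with over 10 reads summed across bins.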
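Throughout, for protein stability index of tFT-peptide fusion in wild type: PSI derived as read-weighted mean over the 8 sorting bins, only variants exceeding 10 total reads kept, mCherry placed adjacent to the peptide and sfGFP distal.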

Sequence | protein stability index (Saccharomyces cerevisiae [1]) | protein stability index (Saccharomyces cerevisiae [2]) | protein stability index (Saccharomyces cerevisiae [5]) | other results
ADTLPMCPLLLR | 0.56 | 0.679 |  | 
AIELPMCPLLLR | 0.221 | 0.677 |  | 
AIMLPMCPLLLR | 0.258 | 0.612 |  | 
AITLPACPLLLR | 0.291 | 0.657 |  | 
AITLPECPLLLR | 0.467 | 0.677 |  | 
AITLPMCHLLLR | 0.158 | 0.663 |  | 
AITLPMCPCLLR | 0.367 | 0.651 |  | 
AITLPMCPGLLR | 0.635 | 0.673 |  | 
AITLPMCPLLHR | 0.628 | 0.716 |  | 
AITLPMCPLLLF | 0.462 | 0.512 |  | 
AITLPMCPLLLL | 0.558 | 0.625 |  | 
AITLPMCPLLLRE | 0.488 | 0.634 |  | 
AITLPMCPLLLRH | 0.222 | 0.646 |  | 
AITLPMCPLLLRI | 0.0995 | 0.485 |  | 
AITLPMCPLLLRR | 0.34 | 0.673 |  | 
AITLPMCPLLLRV | 0.11 | 0.334 |  | 
AITLPMCPLRLR | 0.453 | 0.666 |  | 
AITLPMCPRLLR | 0.648 | 0.675 |  | 
AITLPMDPLLLR | 0.627 | 0.681 |  | 
AITLPMRPLLLR | 0.176 | 0.637 |  | 
AITLPMYPLLLR | 0.161 | 0.651 |  | 
AITLPPCPLLLR | 0.232 | 0.673 |  | 

Sequence | protein stability index (Saccharomyces cerevisiae [1]) | protein stability index (Saccharomyces cerevisiae [2]) | protein stability index (Saccharomyces cerevisiae [5]) | other results
AITYPMCPLLLR | 0.287 | 0.655 |  | 
AQTLPMCPLLLR | 0.394 | 0.686 |  | 
ARWRVGLWRGAS | 0.37 |  | 0.679 | protein stability index (Saccharomyces cerevisiae [3]; [6]): 0.66 ± 0.033; protein stability index (Saccharomyces cerevisiae [3]; [7]): 0.7486 ± 0.0018; protein stability index (Saccharomyces cerevisiae [3]; [8]): 0.648 ± 0.021; protein stability index (Saccharomyces cerevisiae [3]; [9]): 0.764 ± 0.011; protein stability index (Saccharomyces cerevisiae [3]; [10]): 0.259 ± 0.0043; protein stability index (Saccharomyces cerevisiae [3]; [11]): 0.3 ± 0.035; protein stability index (Saccharomyces cerevisiae [3]; [12]): 0.612 ± 0.012; protein stability index (Saccharomyces cerevisiae [4]): 0.448 ± 0.028
CCVSLPILLFFR | 0.0702 | 0.606 |  | 
CLVHLPILLFFR | 0.0596 | 0.56 |  | 
CLVLLPILLFFR | 0.0939 | 0.442 |  | 
CLVSLFILLFFR | 0.228 | 0.433 |  | 
FSMRWTFRYWVN | 0.0664 and 0.0463 |  | 0.528 and 0.476 | protein stability index (Saccharomyces cerevisiae [3]; [6]): 0.301 ± 0.016; protein stability index (Saccharomyces cerevisiae [3]; [7]): 0.545 ± 0.03; protein stability index (Saccharomyces cerevisiae [3]; [8]): 0.531 ± 0.025; protein stability index (Saccharomyces cerevisiae [3]; [9]): 0.573 ± 0.011; protein stability index (Saccharomyces cerevisiae [3]; [10]): 0.0438 ± 0.012; protein stability index (Saccharomyces cerevisiae [3]; [11]): 0.0542 ± 0.0043; protein stability index (Saccharomyces cerevisiae [3]; [12]): 0.0931 ± 0.022; protein stability index (Saccharomyces cerevisiae [4]): 0.112 ± 0.021
LVVYLSCVACIN | 0.0193 and 0.0155 |  | 0.032 and 0.0307 | protein stability index (Saccharomyces cerevisiae [3]; [6]): 0.0319 ± 0.015; protein stability index (Saccharomyces cerevisiae [3]; [7]): 0.028 ± 0.0046; protein stability index (Saccharomyces cerevisiae [3]; [8]): 0.0277 ± 0.0056; protein stability index (Saccharomyces cerevisiae [3]; [9]): 0.0456 ± 0.0096; protein stability index (Saccharomyces cerevisiae [3]; [10]): 0.0223 ± 0.0051; protein stability index (Saccharomyces cerevisiae [3]; [11]): 0.0185 ± 0.0067; protein stability index (Saccharomyces cerevisiae [3]; [12]): 0.0515 ± 0.034; protein stability index (Saccharomyces cerevisiae [4]): 0.0328 ± 0.013
PSLAASFWRVVGY | 0.658 |  | 0.684 | 
PSLAASFWRVVS | 0.15 |  | 0.641 | 
PSLAASFWRVVV | 0.144 |  | 0.687 | 
PSLAASFWVVVG | 0.249 |  | 0.554 | 
PSLAASWWRVVG | 0.179 |  | 0.693 | 
PSLAAVFWRVVG | 0.146 |  | 0.665 | 
PSLAKSFWRVVG | 0.375 |  | 0.702 | 
PSLAVSFWRVVG | 0.137 |  | 0.673 | 
PSLGASFWRVVG | 0.207 |  | 0.696 | 
PSLSASFWRVVG | 0.176 |  | 0.692 | 
PSVAASFWRVVG | 0.142 |  | 0.679 | 
PTSCGYKFRTNN | 0.219 |  | 0.677 | 
PVKRNHLIKLLN | 0.129 |  | 0.608 | 

Sequence | protein stability index (Saccharomyces cerevisiae [1]) | protein stability index (Saccharomyces cerevisiae [2]) | protein stability index (Saccharomyces cerevisiae [5]) | other results
PWKRNHLIKLLN | 0.0786 |  | 0.606 | 
QKILRQKMNHQN | 0.152 |  | 0.678 | 
QTSCGYKFRTNN | 0.206 |  | 0.673 | 
RFIQPLPVQFLN | 0.0529 |  | 0.54 | 
RLCQPLPVQFLN | 0.0327 |  | 0.612 | 
RLIQGLPVQFLN | 0.0788 |  | 0.651 | 
RLIQMLPVQFLN | 0.0223 |  | 0.626 | 
RLIQPCPVQFLN | 0.0722 |  | 0.612 | 
RLIQPDPVQFLN | 0.216 |  | 0.565 | 
RLIQPLKVQFLN | 0.054 |  | 0.805 | 
RLIQPLPIQFLN | 0.0384 |  | 0.593 | 
RLIQPLPKQFLN | 0.103 |  | 0.559 | 
RLIQPLPMQFLN | 0.0399 |  | 0.636 | 
RLIQPLPVQFEN | 0.627 |  | 0.603 | 
RLIQPLPVQFHN | 0.24 |  | 0.616 | 
RLIQPLPVQFLA | 0.139 |  | 0.589 | 
RLIQPLPVQFLF | 0.247 |  | 0.779 | 
RLIQPLPVQFLL | 0.2 |  | 0.586 | 
RLIQPLPVQFTN | 0.377 |  | 0.723 | 
RLIQPLPVQFYN | 0.0309 |  | 0.783 | 
RLIQPLPVQILN | 0.309 |  | 0.774 | 
RLIQPLPVQSLN | 0.457 |  | 0.612 | 

Sequence | protein stability index (Saccharomyces cerevisiae [1]) | protein stability index (Saccharomyces cerevisiae [2]) | protein stability index (Saccharomyces cerevisiae [5]) | other results
RLIQPLPVTFLN | 0.0559 |  | 0.7 | 
RLIQPLYVQFLN | 0.0572 |  | 0.629 | 
RLIQPYPVQFLN | 0.0613 |  | 0.578 | 
SKHKKGQKQKIN | 0.153 |  | 0.625 | 
STSCGYKFRTNN | 0.237 |  | 0.669 | 
VNGAVGGWRLVG | 0.141 |  | 0.68 | 
VRGAVGGSRLVG | 0.642 |  | 0.669 | 
VRGAVGGWILVG | 0.25 |  | 0.638 | 
VRGAVGGWKLVG | 0.203 |  | 0.679 | 
VRGAVGGWRLGG | 0.69 |  | 0.628 | 
VRGAVGGWRLSG | 0.403 |  | 0.67 | 
VRGAVGGWRLVGI | 0.664 |  | 0.679 | 
VRGAVGGWRLVL | 0.572 |  | 0.68 | 
VRGAVGLWRLVG | 0.164 |  | 0.675 | 
VRGAVVGWRLVG | 0.141 |  | 0.66 | 
VRGAYGGWRLVG | 0.114 |  | 0.664 | 
VTSCGYKFRTNN | 0.214 |  | 0.674 | 
WDKRNHLIKLLN | 0.113 |  | 0.602 | 
WRWRVGLWRGAS | 0.186 |  | 0.764 | 
WVVYLSCVACIN | 0.0879 |  | 0.0589 | 
